Among the data in the Immune Epitope Database (IEDB) are Kd values, retold here.

By Kd is commonly meant the equilibrium constant for the complex coming apart. Low readings indicate tighter binding, high ones weaker binding.

Targets include HLA-B*27:05; HLA-B*15:01; HLA-A*29:02; HLA-A*31:01; HLA-A*01:01; HLA-A*02:01; HLA-B*46:01; HLA-B*48:01; HLA-A*03:01; HLA-B*07:02; HLA-B*57:01; HLA-B*44:02; HLA-A*11:01; HLA-B*58:01; HLA-B*08:01; HLA-A*69:01.
Holding throughout (test): IEDB peptide-MHC binding, purified MHC/direct/fluorescence; filed as Kd, often an IC50 or EC50 that approximates it; ≥ and ≤ were set here for values at or beyond the usual limits of such assays
For another experiment, the target named is HLA-A*02:12. Particulars: source organism: Yersinia enterocolitica subsp. enterocolitica 8081.
The next experiment addresses HLA-A*02:19. The following applies: source organism: Yersinia enterocolitica subsp. enterocolitica 8081.
The target in another experiment is HLA-A*26:01. Particulars: source organism: Yersinia pestis.
In another experiment the target is HLA-B*40:01. The following applies: source organism: Yersinia pestis.
In the next experiment the target is HLA-B*51:01. Particulars: source organism: Yersinia enterocolitica subsp. enterocolitica 8081.
The target of a further experiment is HLA-B*18:01. The following applies: source organism: Mammarenavirus juninense.
Where [1] appears, read: source organism: Mammarenavirus lassaense.
Where [2] appears, read: source organism: Yersinia pestis Nepal516.
The mark [3] stands for this setting: source organism: Yersinia enterocolitica subsp. enterocolitica 8081.
Where [4] appears, read: source organism: Yersinia pestis.
Setting [5] is: source organism: Mammarenavirus juninense.

On to DIKLIDIAL, for which the Kd with HLA-B*27:05 (setting [1]), in the experiment with HLA-B*15:01 (setting [1]), with HLA-A*29:02 (setting [1]), in the experiment with HLA-A*31:01 (setting [1]), in the experiment with HLA-A*01:01 (setting [1]) and with HLA-A*02:01 (setting [1]) was at least 20 µM in each case. Also, the Kd with HLA-B*46:01 (setting [1]), with HLA-B*48:01 (setting [1]), with HLA-A*03:01 (setting [1]), with HLA-B*07:02 (setting [1]), with HLA-B*57:01 (setting [1]) and in the experiment with HLA-B*44:02 (setting [1]) was at least 20 µM throughout. Further, the Kd was at least 20 µM with HLA-A*11:01 (setting [1]), at least 20 µM in the experiment with HLA-B*58:01 (setting [1]) and 0.894 µM with HLA-B*08:01 (setting [1]).
For the sequence ETIFTVLAL, the Kd with HLA-B*27:05 (setting [2]) is at least 20 µM; with HLA-B*15:01 (setting [2]), at least 20 µM; with HLA-A*02:12, at least 20 µM; with HLA-A*02:19 it was at least 20 µM; with HLA-A*29:02 (setting [3]), 0.182 µM; in the experiment with HLA-A*31:01 (setting [2]), at least 20 µM. Besides, the Kd with HLA-A*01:01 (setting [2]) was at least 20 µM; with HLA-A*02:01 (setting [2]), at least 20 µM; with HLA-A*26:01 it was 0.00767 µM; with HLA-A*69:01 (setting [4]), 0.0035 µM; with HLA-A*03:01 (setting [2]) it was at least 20 µM; with HLA-B*07:02 (setting [4]), 4.5 µM. In addition, the Kd with HLA-B*57:01 (setting [3]) was at least 20 µM; in the experiment with HLA-B*40:01, 2.41 µM; in the experiment with HLA-B*44:02 (setting [2]), at least 20 µM; with HLA-A*11:01 (setting [2]) it was at least 20 µM; with HLA-B*51:01 it was at least 20 µM; with HLA-B*58:01 (setting [2]), at least 20 µM. For the same sequence, in the experiment with HLA-B*08:01 (setting [2]), the Kd was at least 20 µM.
Take QLAKRSEIL: the dissociation constant Kd with HLA-B*27:05 (setting [5]), in the experiment with HLA-B*18:01, with HLA-A*29:02 (setting [5]), with HLA-A*31:01 (setting [5]), in the experiment with HLA-A*01:01 (setting [5]) and with HLA-B*46:01 (setting [5]) was at least 20 µM in each case. The Kd in the experiment with HLA-A*69:01 (setting [5]), with HLA-B*48:01 (setting [5]), with HLA-A*03:01 (setting [5]), with HLA-B*57:01 (setting [5]), with HLA-B*44:02 (setting [5]) and with HLA-A*11:01 (setting [5]) was at least 20 µM each time. For the same sequence, the Kd was at least 20 µM with HLA-B*58:01 (setting [5]) and 1.3 µM with HLA-B*08:01 (setting [5]).
